Laboratory results reported in patent US20220112276A1 (Janssen / Centocor, published 2022).

Target: T1, recombinant human pIgR (hpIgR) (human, UniProt P01833 19-638, limits assumed)
T1 construct: probably the ECD
Experiment: ELISA, periplasmic VHH, BSA subtracted
Experimental: Initial Library Screening: After each panning round showing enrichment, 94 individual clones were expressed and tested in an off-phage initial screen for specific binding to mpIgR or hpIgR (respectively depending on the antigen used). Screening of monoclones in an off-phage format was performed by transforming the phagemid pool into a non-amber-suppressor strain of E. coli and picking random colonies. The VHH proteins were recovered in the periplasmic fraction by performing osmotic shock. Periplasmic fractions containing His-tagged nanobodies were tested for binding to hpIgR or mpIgR. Bound nanobody was detected with a polyclonal anti-alpaca VHH domain antibody. Each clone was also tested for non-specific binding to BSA in parallel. The ELISA values obtained on BSA were subtracted from the ELISA values obtained on the respective pIgR antigen.
Repeat Testing of Positive Hits: The hits identified in the initial screen of the phage pools were re-tested for binding to either hpIgR or mpIgR. Periplasmic fractions were prepared again by performing osmotic shock. Periplasmic fractions containing His-tagged nanobodies were tested for binding to mpIgR. In this assay, bound nanobody was detected with an anti-VHH antibody. Each clone was also tested for non-specific binding to BSA in parallel. The ELISA values obtained on BSA were subtracted from the ELISA values obtained on the respective pIgR antigen.

T1 sequence (P01833 19-638 limits assumed): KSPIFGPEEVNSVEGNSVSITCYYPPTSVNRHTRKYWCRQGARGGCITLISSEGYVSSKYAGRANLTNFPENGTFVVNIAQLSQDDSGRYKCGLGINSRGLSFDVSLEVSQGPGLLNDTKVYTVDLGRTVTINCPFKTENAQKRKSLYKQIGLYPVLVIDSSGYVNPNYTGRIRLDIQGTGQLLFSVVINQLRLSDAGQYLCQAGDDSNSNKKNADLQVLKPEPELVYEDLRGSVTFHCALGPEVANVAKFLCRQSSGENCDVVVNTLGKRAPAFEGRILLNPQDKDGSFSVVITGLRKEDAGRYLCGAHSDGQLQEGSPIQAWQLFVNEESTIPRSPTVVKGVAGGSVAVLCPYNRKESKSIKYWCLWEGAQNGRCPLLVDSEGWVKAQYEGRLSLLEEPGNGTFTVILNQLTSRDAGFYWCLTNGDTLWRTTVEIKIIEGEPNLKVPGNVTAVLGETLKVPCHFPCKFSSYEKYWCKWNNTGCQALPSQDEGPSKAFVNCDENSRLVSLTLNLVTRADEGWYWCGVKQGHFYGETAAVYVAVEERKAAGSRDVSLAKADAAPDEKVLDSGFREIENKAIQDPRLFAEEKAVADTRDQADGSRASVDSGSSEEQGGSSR

| Binder | ELISA (OD) |
| --- | --- |
| 01C03R3 His-tagged VHH (VHH) VHH: QVQLVESGGGLVQAGGSLRLSCAASGRTFSSYAMGWFRQAPGKEREFVAAIHWNGASTYRYSADSVKGRFTISRDNAKNTVYLQMNSLKPEDTAAYYCAASPPPTVGDVRDPANYDSWGQGTLVTVSS | 0.56 OD |
| 01A02R3 His-tagged VHH (VHH) VHH: EVQLVESGGGLVQSGGSLRLSCAASGRTFDQFTVGWFRQAPGKEREFVTAIRWSGSTTYRYYADSVKGRFTISRDNARNTVDLQMNSLKPEDSAVYYCAGQMSQWSDPRGDDYDSWGQGTLVTVSS | 1.98 OD |
| 01B07R2L His-tagged VHH (VHH) VHH: EVQLVESGGGLVQAGGSLRLSCAASGRTFSSDAVGWFRQAPGKEREFVAHIHWSGDFTTYYYYGDFVKGRFTISRGTAKNTVYLQMNSLKPEDTAVYYCAAPKGAIGDPRSTREYDYWGQGTLVTVSS | 0.67 OD |
| 01H01R2LS His-tagged VHH (VHH) VHH: EVQLVESGGGLVQTGGSLRLSCAASGRTFSPYAMGWFRQAPGKEREFVAAIRWSGATTYKYVGGSVQGRFTISRDAAGNTVYLQMNSVKPEDTAVYYCAADRVPKDISIDPRNPKDWDYWGKGTQVTVSS | 1.17 OD |
| 01C02R3 His-tagged VHH (VHH) VHH: QVQLVESGGGLVQAGGSLRLSCAASGLSFSSYTMGWFRQVPGKERELISAIHWSGGPTFYSNSVKGRFTISRDNAKDTVYLQMNSLKPEDTAVYYCTAEPVGSMISPDWTYWGQGTLVTVSS | 1.8 OD |
| 01B12R2 His-tagged VHH (VHH) VHH: EVQLVESGGGLVQAGGSLRLSCAASGRTFSSGIMGWFRQAPGKEREFVAAIEWSGGNTYKYYAESVKGRFAISRDNAKTTAYLQMGSLNPEDTALYYCAADESPSRYIDLRRPAPYHYWGQGTLVTVSS | 1.78 OD |
| 01C02R2 His-tagged VHH (VHH) VHH: EVQLVESGGGLVQAGGSLRLSCAASGRSYAMGWFRQAPGKEREFAAAISWSGSRTYYADAVKGRFTISRDNAKNTVYLQMNSLKPEDTAVYYCAADPDGTVVASSGWTNSYEYGYWGQGTLVTVSS | 2.26 OD |
| 01A04R3LS His-tagged VHH (VHH) VHH: QVQLVESGGGSVQPGGSLRLSCAASGIDVSISTIMWYRQPPGRQRELVADVIPSGRSTTYTESVKGRFTVTRDNAKNTVYLQMSGLKPEDTAVYYCNAFVRRENYWGQGTQVTVSS | 2.15 OD |
| 01C03R3LS His-tagged VHH (VHH) VHH: EVQLVESGGGLVQPGGSLRLSCVASGLPGSSSRMAWFAQAPGKEREFVAAIAWRGRTSYKYYSDSVKGRFTVSGDNAKRTLDLQMKDLNPEDTALYFCAAHPNDDGDPRISGNYQYWGQGTQVTVSS | 2.11 OD |
| 01G07R2L His-tagged VHH (VHH) VHH: QVQLVESGGGLVQPGGSLRLSCVASGLPFSSSRMAWFAQAPGKEREFVAAIGWRGRTSYKYYADSVKGRFTVSGDNAKKTLDLQMKDLKPEDTALYFCAAHPNDDGDPRISGNYQYWGQGTQVTVSS | 1.54 OD |
| 01C03R2L His-tagged VHH (VHH) VHH: EVQLVESGGGLVQAGGSLRLSCAASGRTLRSYIVGWFRQAPGKEREFVAAVTWSDGRRVTADPVKGRFTISRDNAKNTVYLQMDSLKPEDAAVYYCAVSHGGAYVESRAYEYWGQGTQVTVSS | 2.37 OD |
| 01D01R3 His-tagged VHH (VHH) VHH: EVQLVESGGGLVQAGGSLRLSCAASGRTFSVYGMGWFRQAPGQERAFVAAISWSDGSTYYADSVKGRFTISRDNAKNTMYLQMNSLKPEDTAVYFCAADLTGWGLDADVSEYDYWGQGTQVTVSS | 1.95 OD |
| 01E03R2 His-tagged VHH (VHH) VHH: EVQLVESGGGLVQAGGSLRLSCAASGRTFSVYGMGWFRQAPGQERAFVAAISWSDGSTYYADSVKGRFTISRDNAKNTMYLQMNSLKPEDTAVYFCAADLTGWGLDADVSEYDYWGQGTLVTVSS | 2.13 OD |
| 01A06R3LS His-tagged VHH (VHH) VHH: EVQLVESGGGVVQAEDSLRLSCAASGLPFSSSRMGWFRQAPGKEREFVAAIGWSGRSTYKYYADSVKGRFTVSGDNAKKTLDLQMKDLKPEDTAVYYCAAHPDYYGDPRTSGAYRYWGQGTQVTVSS | 1.95 OD |
| 01B07R3L His-tagged VHH (VHH) VHH: EVQLVESGGGVVQAEDSLRLSCAASGLPFSSSRMGWFRQVPGKEREFVAAIGWSGRSTYRYYDDSVKGRFTVSGDNAKNTLDLQMKGLKPEDTAVYYCAADPNYYGDVRTSGTYQYWGQGTQVTVSS | 2.29 OD |
| 01C09R3LS His-tagged VHH (VHH) VHH: EVQLVESGGGLVQAGGSLRLSCAASGRTINTYVMGWFRQAPGKEREFVARIDWSGSSTDYADSVKGRFTISRDNAKNTVYLQMNSLKPEDTAVYYCAGSAYYSGYVTHRDFGSWGQGTQVTVSS | 1.64 OD |
| 01C05R3LS His-tagged VHH (VHH) VHH: EVQLVESGGGLVQAGGSLRLSCAASGRTINTYVMGWFRQAPGKEREFVARIDWSGSSTDYADSVKGRFTISRDNAKNTVYLQMNSLKPEDTAVYYCAGSAYYSGYVTHRDFGSWGQGTLVTVSS | 1.89 OD |
| 01B12R3LS His-tagged VHH (VHH) VHH: EVQLVESGGGLVQAGGSLRLSCAASGRTINGYVMGWFRQAPGKEREFVARIDWSGSSTDYADSVKGRFTISRDNAKTTVYLQMNSLKPEDTAVYYCAGSAYYSGYVTHRDFGSWGQGTQVTVSS | 2.17 OD |
| 01D07R3LS His-tagged VHH (VHH) VHH: QVQLVESGGGLVQAGGSLRLSCAASGRTINTYVMGWFRQAPGKEREFVARIDWSGSSTDYADSVKGRFTISRDNAKNTVYLQMNSLKPEDTAVYYCAGSAYYSGYVTHRDFGSWGQGTLVTVSS | 2.07 OD |
| 01B10R3LS His-tagged VHH (VHH) VHH: QVQLVESGGGLVQAGGSLRLSCAASGRTIYGYVMGWFRQAPGKEREFVARIDWSGSSTDYADSVKGRFTISRDNAKNTVYLQMNSLKPEDTAVYYCAGSAYYSGYVTHRDFGSWGQGTQVTVSS | 1.91 OD |
| 01G10R3LS His-tagged VHH (VHH) VHH: EVQLVESGGGLVQAGGSLRLSCAASGRTINTYVTGWFRQAPGKEREFVARIDWSGSSTDYADSVKGRFTISRDNAKNTVYLQMNSLKPEDTAVYYCAGSAYYSGYVTHRDFGSWGQGTQVTVSS | 1.96 OD |
| 01F11R2 His-tagged VHH (VHH) VHH: EVQLVESGGGLVQAGGSLRLSCAASGRTLNTYVMGWFRQAPGKEREFVARIDWSGSTTDYADSVKGRFTISRDNAKNTVYLQMNSLKPEDTAVYYCAGSAYYSGYVTHRDFGSWGQGTQVTVSS | 0.62 OD |
| 01E09R3LS His-tagged VHH (VHH) VHH: EVQLVESGGGLVQAGGSLRLSCAASGRTINTYVMGWFRQAPGKEREFVARIDWSGSSTDYADSVKGRFTTSRDNAKNTVYLQMNGLKPEDTAVYYCAGSAYYSGYVTHRDFGSWGQGTLVTVSS | 1.97 OD |
| 01G09R2 His-tagged VHH (VHH) VHH: EVQLVESGGGLVQAGGSLRLSCAASGRTINTYVMGWFRQAPGKEREFVARIDWSGSSTDYADSAKGRFTISRDNAKNTVYLQMNSLKPEDTAVYYCAGSAYYSGYVTHRDFGSWGQGTLVTVSS | 2 OD |
| 01F03R3LS His-tagged VHH (VHH) VHH: EVQLVESGGGLVQAGGSLRLSCAASGRTINGYVMGWFRQAPGEEREFVARIDWSGSSTDYADSVKGRFTISRDNAKITVYLQMNSLKPEDTAVYYCAGSAYYSGYVTHRDFGSWGQGTLVTVSS | 2.35 OD |
| 01H11R3LS His-tagged VHH (VHH) VHH: QVQLVESGGGLVQAGGSLRLSCAASGRTINGYVMGWFRQAPGKEREFVARIDWSGSSTDYADSVKGRFTISRDNAKTTVYLQTNSLKPEDTAVYYCAGSAYYSGYVTHRDFGSWGQGTQVTVSS | 0.99 OD |
| 01B08R2 His-tagged VHH (VHH) VHH: EVQLVESGGRLVQAGGSLRLSCAASGLTRSDYAMGWFRQAPGKEREFVATLKWSEGSRFMYRAEDVKGRFTISSGAAKTTVWLDMDALNPEDTAVYYCAAGFNVGFVRRASEYNFWGQGTLVTVSS | 1.94 OD |
| 01C12R2 His-tagged VHH (VHH) VHH: EVQLVESGGGLVQAGGSLRLSCAASGRTFGSYSMGWFRQAPGKEREFVGAISWSGSSTYKYYEDSVKGRFTISRDNAKNTVPLQMNSLKPEDTGVYFCGGTMERRDPRRTSAYDYWGQGTLVTVSS | 1.85 OD |
| 01C11R2 His-tagged VHH (VHH) VHH: EVQLVESGGGLVQTGGSLRLSCAASGRTFSTYRMGWFRQAPGKEREFVAAISWSTGSTYYADSVKGRFAISRDNAKNTIYLQMNSLKPEDTAVYYCAAGMVATTRSSAYPYWGQGTQVTVSS | 1.3 OD |
